The text below walks through data of article PMC12818389, “The Functional Epididymal Amyloid Cystatin‐Related Epididymal Spermatogenic (CRES) is a Component of the Mammalian Brain Extracellular Matrix” (Journal of Neuroscience Research, 2026).

The data set deals with the molecule itself. The data set can be described thus: SDS-PAGE and Western blot of SDS-resistant high molecular weight forms; 5 ug recombinant CRES monomer alone, 50 mM sodium phosphate pH 8, room temperature 3 h with shaking and silicon beads, no ThT; 25,000 x g pellet in Laemmli buffer, Western blot for CRES.

B1: Tag-less full-length mouse CRES C48A protein (recombinant) (natural protein, UniProt P32766 20-142, looked up)
chain: VGVDQSKNEVKAQNYFGSINISNANVKQAVWFAMKEYNKESEDKYVFLVDKILHAKLQITDRMEYQIDVQISRSNCKKPLNNTENCIPQKKPELEKKMSCSFLVGALPWNGEFNLLSKECKDV
notes: Cystatin-related epididymal spermatogenic protein (CRES, Cst8), mouse, called tag-less and full-length; C48A introduced to prevent inappropriate disulfide bond formation; a recombinant form without the signal peptide is possible (surmise); also called CRES monomer; recombinant CRES protein
On to B1, for which the binding result was “binds”.
